# Patent US20230025280A1, “PH RESPONSIVE COMPOSITIONS, FORMULATIONS, AND METHODS OF IMAGING A TUMOR” (ONCONANO MEDICINE, INC, priority 2019, published 2023)
# Several values for one entry are separate records, joined by “and”; a condition that tells them apart may be missing. Equal values may be shown once.
# Assay: Phase 1 (1a/1b) pharmacokinetics: plasma concentrations after single IV dose (validated direct fluorescence reader assay), noncompartmental analysis
# Assay type: in vivo, human
# Conditions: 1.2 mg/kg
# Text: Phase 1 is a single-Principal Investigator, non-randomized, open-label, single-arm, cross-sectional study to evaluate the safety, PK profile, and imaging feasibility of Compound 1 in patients with solid cancers who require surgical excision. The main purpose of this study was to investigate the safety, PK, and feasibility of Compound 1 as an intra-operative optical imaging agent to detect tumors and metastatic lymph nodes in solid cancers. The study was intended to investigate the optimal dose range of Compound 1 for an adequate TBR and CNR of fluorescence obtained intraoperatively at 24 (±8) hours post dosing and with ex vivo specimens using ICG compatible cameras and imaging devices.
# Phase 1 enrolled 30 patients with solid cancers (HNSCC, breast cancer, esophageal cancer, or colorectal cancer) who have a biopsy-confirmed diagnosis of respective tumor types and are scheduled to undergo surgical resection of the tumor. The study design included a standard 3+3 design for the dose-escalation portion (Phase 1a; N=18 maximum) followed by a dose-expansion portion (Phase 1b; N=15). All patients received a single I.V. dose of Compound 1, followed by routine surgery approximately 24 hours after infusion of Compound 1.
# Phase 1a was a dose-finding study performed in 5 cohorts of 3 patients each. The dose levels evaluated were […], and 1.2 mg/kg, in this sequence. Inter-cohort dose escalation took place after the last patient in the previous cohort completed the Day 10 safety assessment. Safety, PK, and imaging feasibility were evaluated in both the Phase 1a and 1b portions of the study. Patient safety is assessed during the study and for up to 10 days post-dose.
# Study design: Single Compound 1 IV dose was administered as a 1-5 minute IV infusion to patients in five cohorts (0.1, 0.3, 0.5, 0.8, and 1.2 mg/kg) with three patients per cohort in Phase 1a and 15 patients at a dose of 1.2 mg/kg in Phase 1b. Patient demographic information including tumor types is presented in Table 4 and 5 for Phase 1a and Table 5 for Phase 1b. Intertek Pharmaceutical Services (San Diego, Calif.) determined Compound 1 plasma concentrations using a validated direct fluorescence reader assay. Pacific BioDevelopment (Davis, Calif.) performed the PK analysis.
# Sample collection: Blood samples were collected prior to infusion and at 10 minutes and 0.5, 1, 3, 8, 24, 48, 72, and 240 hours after infusion.
# Analysis: Plasma concentration versus time profiles were generated for each patient. Pharmacokinetic parameters were estimated using Phoenix WinNonlin (version 8.0). According to SOP, concentrations reported as BQL were set to 0 except for the 0.5 h sample for subject #ON1102, which was set to LLOQ/2 ([…] value used in parameter calculations) and the 24 and 48 h samples.
# If the coefficient of determination for the terminal slope estimation was less than 0.8, T1/2 was not reported (NR). AUC extrapolated to infinity is not reported for any data set because in all cases the % extrapolated AUC was greater than 20% and thus the AUCinf estimate would not be reliable. The concentration at 10 minutes, the first time point measured (C10m), was also reported for each patient.
# The area under the plasma concentration versus time curves from dosing to the last time point with a measurable concentration (AUClast) was estimated by the linear trapezoid method. The last three or more time points were used to estimate the elimination rate constant (λz) which was used to estimate the terminal-phase half-life (T1/2) and AUC from zero to infinity (AUCINF) from the following equations: […]
substance,measurement,setting,value
PEO90-140-b-P(DBA60-150-r-ICG0-3-r-AMA0-3) [Compound 1],Differences in pharmacokinetic parameters based on tumor type,Phase 1a and Phase 1b,no apparent differences
same,T1/2,"ALL cancer types, Mean, N 16",44.5 h
same,AUC0-24 hr,"ALL cancer types, Mean, N 18",615 µg·h/mL
same,AUCall,"ALL cancer types, Mean, N 18",1670 µg·h/mL
same,AUClast,"ALL cancer types, Mean, N 18",1100 µg·h/mL
same,C10 m,"ALL cancer types, Mean, N 18",33.0 µg/mL
same,Cmax,"ALL cancer types, Mean, N 18",34300 ng/mL
same,Tmax,"ALL cancer types, Mean, N 18",0.834 h
same,T1/2,"ALL cancer types, Median, N 16",40.5 h
same,AUC0-24 hr,"ALL cancer types, Median, N 18",615 µg·h/mL
same,AUCall,"ALL cancer types, Median, N 18",1170 µg·h/mL
same,AUClast,"ALL cancer types, Median, N 18",997 µg·h/mL
same,C10 m,"ALL cancer types, Median, N 18",32.4 µg/mL
same,Cmax,"ALL cancer types, Median, N 18",33600 ng/mL
same,Tmax,"ALL cancer types, Median, N 18",0.500 h
same,AUC0-24 hr,"BC, Mean, N 5",592 µg·h/mL
same,AUCall,"BC, Mean, N 5",1730 µg·h/mL
same,AUClast,"BC, Mean, N 5",1150 µg·h/mL
same,C10 m,"BC, Mean, N 5",31.2 µg/mL
same,Cmax,"BC, Mean, N 5",32900 ng/mL
same,T1/2,"BC, Mean, N 5",51.0 h
same,Tmax,"BC, Mean, N 5",0.634 h
same,AUC0-24 hr,"BC, Median, N 5",574 µg·h/mL
same,AUCall,"BC, Median, N 5",1170 µg·h/mL
same,AUClast,"BC, Median, N 5",1020 µg·h/mL
same,C10 m,"BC, Median, N 5",33.0 µg/mL
same,Cmax,"BC, Median, N 5",33000 ng/mL
same,T1/2,"BC, Median, N 5",45.5 h
same,Tmax,"BC, Median, N 5",0.500 h
same,AUC0-24 hr,"BC, individual subjects",630 µg·h/mL and 693 µg·h/mL and 574 µg·h/mL and 562 µg·h/mL and 502 µg·h/mL
same,AUCall,"BC, individual subjects",1170 µg·h/mL and 3190 µg·h/mL and 1020 µg·h/mL and 1120 µg·h/mL and 2120 µg·h/mL
same,AUClast,"BC, individual subjects",1020 µg·h/mL and 1740 µg·h/mL and 891 µg·h/mL and 968 µg·h/mL and 1110 µg·h/mL
same,C10 m,"BC, individual subjects",36.5 μg/mL and 33.0 μg/mL (2×) and 28.0 μg/mL and 25.5 μg/mL
same,Cmax,"BC, individual subjects",37700 ng/mL and 34300 ng/mL and 33000 ng/mL and 32000 ng/mL and 27600 ng/mL
same,T1/2,"BC, individual subjects",34.5 h and 83.0 h and 30.6 h and 45.5 h and 61.4 h
same,Tmax,"BC, individual subjects",1.00 h and 0.170 h and 0.500 h
same,AUC0-24 hr,"CRC, Mean, N 3",677 µg·h/mL
same,AUCall,"CRC, Mean, N 3",1790 µg·h/mL
same,AUClast,"CRC, Mean, N 3",1150 µg·h/mL
same,C10 m,"CRC, Mean, N 3",35.5 µg/mL
same,Cmax,"CRC, Mean, N 3",36400 ng/mL
same,T1/2,"CRC, Mean, N 3",46.3 h
same,Tmax,"CRC, Mean, N 3",0.557 h
same,AUC0-24 hr,"CRC, Median, N 3",684 µg·h/mL
same,AUCall,"CRC, Median, N 3",1090 µg·h/mL
same,AUClast,"CRC, Median, N 3",971 µg·h/mL
same,C10 m,"CRC, Median, N 3",35.8 µg/mL
same,Cmax,"CRC, Median, N 3",36400 ng/mL
same,T1/2,"CRC, Median, N 3",33.4 h
same,Tmax,"CRC, Median, N 3",0.500 h
same,AUC0-24 hr,"CRC, individual subjects",721 µg·h/mL and 684 µg·h/mL and 626 µg·h/mL
same,AUCall,"CRC, individual subjects",3350 µg·h/mL and 939 µg·h/mL and 1090 µg·h/mL
same,AUClast,"CRC, individual subjects",1780 µg·h/mL and 684 µg·h/mL and 971 µg·h/mL
same,C10 m,"CRC, individual subjects",38.6 µg/mL and 32.1 µg/mL and 35.8 µg/mL
same,Cmax,"CRC, individual subjects",38600 ng/mL and 34100 ng/mL and 36400 ng/mL
same,T1/2,"CRC, individual subjects",77.9 h and 33.4 h and 27.7 h
same,Tmax,"CRC, individual subjects",0.170 h and 1.00 h and 0.500 h
same,AUC0-24 hr,"EC, Mean, N 3",659 µg·h/mL
same,AUCall,"EC, Mean, N 3",1570 µg·h/mL
same,AUClast,"EC, Mean, N 3",1170 µg·h/mL
same,C10 m,"EC, Mean, N 3",34.7 µg/mL
same,Cmax,"EC, Mean, N 3",35800 ng/mL
same,T1/2,"EC, Mean, N 3",37.1 h
same,Tmax,"EC, Mean, N 3",0.723 h
same,AUC0-24 hr,"EC, Median, N 3",606 µg·h/mL
same,AUCall,"EC, Median, N 3",1460 µg·h/mL
same,AUClast,"EC, Median, N 3",1270 µg·h/mL
same,C10 m,"EC, Median, N 3",32.6 µg/mL
same,Cmax,"EC, Median, N 3",32600 ng/mL
same,T1/2,"EC, Median, N 3",34.4 h
same,Tmax,"EC, Median, N 3",1.00 h
same,AUC0-24 hr,"EC, individual subjects",606 µg·h/mL and 787 µg·h/mL and 585 µg·h/mL
same,AUCall,"EC, individual subjects",2150 µg·h/mL and 1460 µg·h/mL and 1100 µg·h/mL
same,AUClast,"EC, individual subjects",1280 µg·h/mL and 1270 µg·h/mL and 961 µg·h/mL
same,C10 m,"EC, individual subjects",31.4 µg/mL and 40.0 µg/mL and 32.6 µg/mL
same,Cmax,"EC, individual subjects",32600 ng/mL and 42200 ng/mL
same,T1/2,"EC, individual subjects",43.3 h and 34.4 h and 33.6 h
same,Tmax,"EC, individual subjects",1.00 h and 0.170 h
same,T1/2,"HNSCC, Mean, N 5",41.4 h
same,AUC0-24 hr,"HNSCC, Mean, N 7",585 µg·h/mL
same,AUCall,"HNSCC, Mean, N 7",1620 µg·h/mL
same,AUClast,"HNSCC, Mean, N 7",1020 µg·h/mL
same,C10 m,"HNSCC, Mean, N 7",32.5 µg/mL
